Measured values reported in patent US20110065633A1, “ESTER-BASED PEPTIDE PRODRUGS” (INDIANA UNIVERSITY RESEARCH AND TECHNOLOGY CORPORATION, priority 2008, published 2011).
Where two headings read alike, the source gives them in different places. Bridges are numbered along the chain shown (N, C = ends). Where no end group is shown, it is not given here. [ ]: non-standard residue; d: D form. PhLac = O=C(O)[C@@H](O)Cc1ccccc1

How the values were obtained:
Assay in all cases: cell-based or functional assay
GLP-1 receptor [1] = biological target: T1, GLP-1 receptor (Homo sapiens, UniProt P43220)
T1 sequence (P43220 24-463 limits assumed): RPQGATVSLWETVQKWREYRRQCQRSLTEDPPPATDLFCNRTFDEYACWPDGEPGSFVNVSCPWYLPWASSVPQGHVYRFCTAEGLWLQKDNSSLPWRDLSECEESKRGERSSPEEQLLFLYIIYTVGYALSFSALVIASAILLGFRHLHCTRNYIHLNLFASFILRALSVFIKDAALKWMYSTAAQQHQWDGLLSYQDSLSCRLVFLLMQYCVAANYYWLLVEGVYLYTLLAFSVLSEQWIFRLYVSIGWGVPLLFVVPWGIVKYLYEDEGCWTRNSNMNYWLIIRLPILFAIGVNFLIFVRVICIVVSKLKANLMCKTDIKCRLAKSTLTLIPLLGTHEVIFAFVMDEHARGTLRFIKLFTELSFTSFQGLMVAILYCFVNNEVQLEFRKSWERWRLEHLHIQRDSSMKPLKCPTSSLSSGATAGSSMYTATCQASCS

glucagon receptor [2] = biological target: glucagon receptor (UniProt P47871)
Chain of glucagon receptor (UniProt P47871) (P47871 26-477 limits assumed): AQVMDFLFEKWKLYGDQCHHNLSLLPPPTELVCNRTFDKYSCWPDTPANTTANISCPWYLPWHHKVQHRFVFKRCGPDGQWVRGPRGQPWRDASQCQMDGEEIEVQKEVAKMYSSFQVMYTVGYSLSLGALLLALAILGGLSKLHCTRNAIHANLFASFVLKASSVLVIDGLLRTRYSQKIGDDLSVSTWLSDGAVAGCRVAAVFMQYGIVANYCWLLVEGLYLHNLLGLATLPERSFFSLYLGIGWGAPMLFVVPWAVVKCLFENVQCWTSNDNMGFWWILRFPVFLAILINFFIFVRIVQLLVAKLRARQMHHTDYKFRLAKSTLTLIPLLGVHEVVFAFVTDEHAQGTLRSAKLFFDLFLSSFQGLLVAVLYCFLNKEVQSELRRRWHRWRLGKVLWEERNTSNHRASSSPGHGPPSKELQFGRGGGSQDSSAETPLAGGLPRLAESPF

GLP-1 receptor [3] = biological target: T1, GLP-1 receptor; remark: listed apart in the source
glucagon receptor [4] = biological target: glucagon receptor (UniProt P47871); remark: listed apart in the source
glucagon receptor [5] = biological target: glucagon receptor (UniProt P47871 26-477)
Chain of glucagon receptor (UniProt P47871 26-477) (P47871 26-477 limits assumed): as above

GLP-1 receptor [6] = biological target: T2, GLP-1 receptor (UniProt P43220 24-463, limits assumed)
GLP-1 receptor [7] = biological target: T2, GLP-1 receptor; remark: listed apart in the source

Row | Molecule | Glucagon IC50 (glucagon receptor [5]) [nM] | GLP-1 EC50 (GLP-1 receptor [6]) [nM] | GLP-1 EC50 (GLP-1 receptor [7]) [nM] | further results
1 | Glucagon (6-CEX) analog D9, K12E16(Lactam) (peptide) |  |  |  | GLP-1 EC50 (GLP-1 receptor [1]): 18 nM; Glucagon IC50 (glucagon receptor [2]): 828 nM; GLP-1 EC50 (GLP-1 receptor [3]): 119 nM; Glu IC50 (glucagon receptor [4]): 828 nM
2 | [PhLac]TSDYSKYLDERRAKDFVQWLMDT-NH2 (lactam 11-15) [[PLA6, D9, E16K20(lactam), D28]G(6-29)] | 10 to 30 | 4 |  | 
3 | [PhLac]TSDYSKYLDERRAQDFVEWLMKT-NH2 (lactam 19-23; N-terminus assumed; SMILES CSCC[C@@H]1NC(=O)[C@H](CC(C)C)NC(=O)[C@H](Cc2c[nH]c3ccccc23)NC(=O)[C@@H](NC(=O)[C@@H](NC(=O)[C@H](Cc2ccccc2)NC(=O)[C@H](CC(=O)O)NC(=O)[C@H](CCC(N)=O)NC(=O)[C@H](C)NC(=O)[C@H](CCCNC(=N)N)NC(=O)[C@H](CCCNC(=N)N)NC(=O)[C@H](CCC(=O)O)NC(=O)[C@H](CC(=O)O)NC(=O)[C@H](CC(C)C)NC(=O)[C@H](Cc2ccc(O)cc2)NC(=O)[C@H](CCCCN)NC(=O)[C@H](CO)NC(=O)[C@H](Cc2ccc(O)cc2)NC(=O)[C@H](CC(=O)O)NC(=O)[C@H](CO)NC(=O)[C@@H](NC(=O)[C@@H](O)Cc2ccccc2)[C@@H](C)O)C(C)C)CCC(=O)NCCCC[C@@H](C(=O)N[C@H](C(N)=O)[C@@H](C)O)NC1=O) [[PLA6, D9, E16, E24K28(lactam), D28]G(6-29)] | 22 |  | 289 | 
4 | GTFTSEYSKYLDERRAKDFVQWLMDT-NH2 (lactam 13-17; N-terminus assumed; SMILES CSCC[C@H](NC(=O)[C@H](CC(C)C)NC(=O)[C@H](Cc1c[nH]c2ccccc12)NC(=O)[C@H](CCC(N)=O)NC(=O)[C@@H](NC(=O)[C@H](Cc1ccccc1)NC(=O)[C@H](CC(=O)O)NC(=O)[C@@H]1CCCCNC(=O)CC[C@H](NC(=O)[C@H](CC(=O)O)NC(=O)[C@H](CC(C)C)NC(=O)[C@H](Cc2ccc(O)cc2)NC(=O)[C@H](CCCCN)NC(=O)[C@H](CO)NC(=O)[C@H](Cc2ccc(O)cc2)NC(=O)[C@H](CCC(=O)O)NC(=O)[C@H](CO)NC(=O)[C@@H](NC(=O)[C@H](Cc2ccccc2)NC(=O)[C@@H](NC(=O)CN)[C@@H](C)O)[C@@H](C)O)C(=O)N[C@@H](CCCNC(=N)N)C(=O)N[C@@H](CCCNC(=N)N)C(=O)N[C@@H](C)C(=O)N1)C(C)C)C(=O)N[C@@H](CC(=O)O)C(=O)N[C@H](C(N)=O)[C@@H](C)O) [[E9, E16K20(lactam), D28]G(4-29)] | 10 to 30 |  | 151 | 
5 | FTSDYSKYLDSRRAQDFVQWLMDT (residue 1 (position 6) is phenyl lactic acid (PLA), written here as F) [PLA 6, D9, D28] |  | ~700 |  | 
